From the nanobody polyreactivity screen of Harvey et al. (2022) come the findings set out here.

The data set can be described thus: yeast display, Sf9 membrane polyspecificity reagent, FACS + sequencing; frameworks hold sequencing errors. In outline: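 Synthetic nanobody libraries on Saccharomyces cerevisiae BJ5465 were galactose-induced for 36–48 hours, stained 1 hour at 4 °C with 10% biotinylated, detergent-solubilized Sf9 membrane reagent and enriched on streptavidin microbeads. FACS then separated cells into low and high (top ~1%) gates by anti-HA (expression) and streptavidin (reagent binding) fluorescence. Genes were colony-PCR amplified, MiSeq 2 × 250 sequenced and CDR-length filtered. A clone's polyreactivity label is that of its gate of origin.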
On to “QVQLVDSGGGLVQAGGSLRLSCAASGITFNLNVMGWYRQAPGKERELVAAISRSGGRTYYADSVKGRFTISRDNAKNTVYLQMNSLKPEDTAVYYCDALSDRSSVPGDYWGQGTQVTVSS”, for which the “polyreactivity (PSR sort gate)” value is recorded as “high polyreactivity”.
With “QVQLVESGGGLVQAGGSLRLSCAASGFIFYLYAMGWYRQAPGKERELVASINVSGASTRYADSVKGRFTISRDNAKNTDYLQMNSLKPEDTAVYYCAAPSRYDYWGQGTQVTVSS” the entry was “low polyreactivity”; with “QVQLVESGGGLVQAGGSLRLSCAASGRTFANYAMGWYTQAPGKERELVAAITSGGRTYYAVSVKGRFTISRDNAKNTVYLQMNSLKPEDTAVYYCAATRYRVYAQNYDYWGQGTQVTVSS”, “high polyreactivity”.
In the case of “QVQLVESGGGLVQAGGSLRLSCAASGSIFTQYAMGWSRQAPGKERELVAVITTGSSTYYADSVKRRFTISRDNAKNTVYLQMNSLKPEDTSVYYCAVRTATRSPRRYGYWGQGTQVTVSS”, the “polyreactivity (PSR sort gate)” value is listed as “high polyreactivity”.
With “QVQLVESGGGLVQAGGSLRLSCAASGSIFHDNAMGWYRQAPGKERELVAAITTSGGNTYYADSVKGRFTISRDNAKNTVYLQMNSLKPEDTAVYYCAADTLGKYDYWGQGTQVTVSS” the entry was “low polyreactivity”; with “QVQLVESGGGLVQAGGSVRLSCAASGSTIPPKVMGWYREAPGKEREWVAAISWGGSSTYYADSVKGRFPISRDHAKNTVFVQKNCLQREETAVYYCNAEYRSPVYWWYYEYDYWGQGTQVTVSA”, “high polyreactivity”.
Under “QVQLVESGGALVQAGGSLRLSCAASGRTFFGNAMGRYRQAPGKERELVAAISFSGGRTDYADSVKGRFTISRDNAKNTVFLQMNSLKPEDTAVYYCAARTYSAPRNRYYYWGQGTQVTVSS” stands “high polyreactivity”; under “QVQLVESGGGLVQAGGSLRLSCAASGSIFRAYTMGWYRQAPGKERELVAAINWSGGSTYYADSVKGRFTISRDNAKNTVYLQMNSLKPEDTAVYYCAKRWASWRYDYWGQGTQVTVSS”, “high polyreactivity”; under “QVHLVESGGGLVQAGGSLRLSCASTGRISTYYTMVWYRQAPGKERELVAAISWSGTSTYYADSVKGRFTISRDNAKNTVYLQMNSLKPEDTAVYYCNAYFRPRYGYWGQGTQVTVSS”, “high polyreactivity”.
Regarding “QVQLVESGGGLVQAGGSLRLSCAASGRTFLYYAMGWYRQAPGKERELVAGITSGGSTNYADSVKGRFTISRDNAKNTVYLQMNSLKPEETAVYYCAARYFPRIQYGRKGYDYWGQGTQVTVSS”, the “polyreactivity (PSR sort gate)” value is “low polyreactivity”.
Under “QVQLVESGGGLVQAGGSLRLSCAASGITIVRYAMGWYRQAPGKERELVAAINRSGGSTYYADSVKGRFTISRDNAKNTVYLQMNSLKPEDTAVYYCAARLYGKYDPPGYYYWGQGTQVTVSS” stands “high polyreactivity”; under “QVQLVESGGGLVQAGGSLRLTCAASGSIFTYYVRGWYRQAPGKEMELVARISRRGGSTYYADSVKGRFTISRDNAKNTVYLQMNSLKPEDTAFYYCNRVFYYDRDNYDYWGQGTQVTVSS”, “high polyreactivity”; under “QVQLVESGGGFVQAGGSLRLSCAASGRIFYNYAMGWYRQAPGKERELVAAMSGSGGSTYYADSVKGRFTISRDNAKNTVYLQMNSLKPEDTAVYYCSTSGPQYYSRNVDYWGQGTQVTVSS”, “low polyreactivity”.
“QVQLVESGGGLVQAGGSLRLSCAASGSTFRGNAMGWYRQAPGKERELVATISRSNGGSTYYADSVKGRFTISRDIAKNTVYLQMNSLKPEDTEVYYCAARSYIGISTYGYWGLGTQVTVSS”: the “polyreactivity (PSR sort gate)” value was “low polyreactivity”.
“QVQLVESGGGLVQAGGSLRLSCAASGFTFTRYTMGWYSQEPGKERELVARITRSGGSTYYADSVKGRFTISRDNAKNTVYLQMNSLKPEDTAVYYCAADTWSYTTRYYYWGQGTQVTVSS”: the “polyreactivity (PSR sort gate)” value is recorded as “high polyreactivity”.
Under “QVQLVESGGGLVQAGGSLRLSCAASGSIFADYTMGWYRQAPGKERELVAAISSDDSTYYADSVKGRFTISRDNAKNTVYLQMNSLKPEDTAVYYCNDDGSIGPEEYWGQGTQVTVSS” stands “low polyreactivity”.
Regarding “QVQHLESGGGLVQAGGSLRLSCVASGLTQPYAMRWYRQAPGKERQLVAAITGGDGSTTYADSVKGRFTISRVNAKNTVYLQMNSLKPEDTAVYYCNADTARKYAESQFYHWGQGTQVSVSS”, the “polyreactivity (PSR sort gate)” value was “low polyreactivity”.
Under “QVQLVESGGGLVQEGGSLRLSCAASGNIFTTYAMGWYRQAPGKERELVAAISRSGGRTNYADSVKGRFTISRDNAKNTVYLQMNSLKPEDTAVYYCNRALKPVDSYAYGYWGQGTQVTVSS” stands “high polyreactivity”; under “QVQLVESVGGLVQAGGSLRLSCAASGSIFWWYAMGLARQAPGKERELVAAISTRDGNTYYADSVKGRFTISRDNANNTVYLQMNSLKPEDTAVYYCAADYFRYYPYDYWGQGTQVTVSS”, “low polyreactivity”; under “QVQLVESGGGLVQAGGSLRLSCAASGRIFRGNAMGWYRQAPGKERELVAAISWGGGSTYYAYSVKGRFTISRDNAKNTVYLQMNSLKPEDTAVYYWNKEYVFWRFPNWYTYGYWGQGTQVTLSS”, “high polyreactivity”.
With “QVQLVESGGGLVQAGGSLRLSCAASGTTFRFYAMGLYRQAPGKERELDAAINGSGGSTYYADSVKGRFTISRDNAKNTVYFQMISMKPEDTAVYYCAADGVPDALDRDYWGQGTQVNVSS” the entry was “low polyreactivity”.
Under “QVQLVESGGGLVQAGGSLRLSCAASGSIFRWNAMGWYRQSPGKERELLAAIDSGGSTYADSVKGRFTISRYNAKNTVYLQMYSLKPEDTAVYYCAAEIPDEWPYDYWGQGTQVTVSS” stands “low polyreactivity”; under “QVQLVESGGCLVQAGGSLRLICASSGFTFRAYAMGWYIKAPGKEREFVAAISRRGGSTSYADSVKGRFTISRDNAKNTVYLQMNSLKPEDTAVYYCAATYQILTTSAHDSWGQGTQVTVSS”, “high polyreactivity”.
For the sequence “QVQLVESGGGLVQAGGSLRLSCAASGSTLSYNAMGWYRQAPGKERELVAAISWSDGGTYYADSVKGRFTISRDTAKNTVFLQMNSLKPEDTAVYYCAARRGVRYSKFGYYYWGQGTQVTVSS”, the “polyreactivity (PSR sort gate)” value was “high polyreactivity”.
Under “QVQLVESGGGLVQAGGSLRLICAASGSTLDKYAMGWDRPAPGKERELVAAISSSGGSTYYADSVKGRFTISRDNAKNTVYLQMNSLKPEDTAVYYCAARFFRGRYLDDYWGQGTQVTVSS” stands “high polyreactivity”; under “QVQLEESGGGLVQAGGSLRLSCAASGYTFGFYTMGWYRQAPGQERALVAGISWSGGSTYYADSVKGPFTISRDNAKNTVYLQMNSLKQEDTAVFYCAAVSTRVLVNYDSWGQGTQVTVSS”, “high polyreactivity”; under “QVQLVESGGGLDQAGGSLRLSCAASGSTFVANAMGWYRQAPGKERELVAAITYRGGSTYYADSVKGRFTISRDNAKNSVYLQMNSLKPEDTAVYYCNTVYYVASASYYWRYDYWGQGTQVTVSS”, “high polyreactivity”.
On to “QVQLVESGGGLVQAGGSLRLSCAASGFIFRGYAMGWYRQAPGKERELVAAISRRGGSTYYADSVKGRFTISRDNAKNTVYLQMNSLKPEDTAVYYCNADTTPQGNVRDGYWGQGTQVTVSS”, for which the “polyreactivity (PSR sort gate)” value was “high polyreactivity”.
With “QVQLVESGGCLVQAGGSLRLSCAASGGTFHRYAMGGYRQAPGKERELVAAISGSGASTYYADSVKGRFTISRDNAKNTVYLQMNSLKPEDTAVYYCNAYSYPYWYRYYYWGQGTQVTVSS” the entry was “high polyreactivity”.
Under “QVQLVESGGGLVQAGGSLRLSCAASGLTFWYNAMGWYRQAPGKERELVAAINSGGRTNYADSVKGRFTISRDNAKNTVYLQMNSLKPEDTAVYYCAAVRHWTVGWTYYYWGQGTQVTVSS” stands “high polyreactivity”.
